The text below walks through data of patent US20110212108A1, “NEUREGULIN/ERBB SIGNALING AND INTEGRIN” (THE REGENTS OF THE UNIVERSITY OF CALIFORNIA, priority 2008, published 2011).

Experiment [1] relates to B16F10 melanoma cells. Description: Western blotting of signaling in B16F10 cells. The experiment is classed as cell-based, mouse. To be noted: 10 ng/ml. How it is done:
FIG. 11. […] Cells were serum starved and stimulated with 10 ng/ml wt or mutant NRG1 (175-222). Cell lysates were analyzed by western blotting.
Cell proliferation: cells were starved by culturing DMEM with low-level FCS (e.g., 0.4%) overnight and then treated with the wt or mutant NRG1 (175-222) (up to 100 ng/ml). The cells were harvested in 15 min to 6 h after stimulation and cell lysates analyzed by western blotting with antibodies specific to signaling molecules. Alternatively, cells were cultured for 24-48 h after stimulation for testing proliferation or cell viability by MTS assays. Statistical analysis and calculation of kinetic constants were performed using Prism software (Graphpad).
Signaling: The levels of cell proliferation were measured by MTS assays and the kinetic data were analyzed by using Prism software (Graphpad). Melanoma cells were cultured in the presence of wt or mutant NRG1 (175-222), and the levels of ErbB2 and B3 phosphorylation, MAP kinase activation, or activation of other signaling molecules in the cell lysates were monitored by immunoprecipitating ErbB2 and B3 from the lysates and detecting tyrosine phosphorylation by western blotting with anti-phosphotyrosine antibodies (the IP-Western method) for ErbB2 and B3. Alternatively, anti-phospho ErbB2 or B3 antibodies (commercially available) and anti-phospho ERK1/2 antibodies were used.
(In general: In western blotting, separated proteins are transferred to a membrane and probed.)

Experiment [2] deals with T1, CHO cells that express human β3 (β3-CHO) (Homo sapiens, UniProt P05106).
T1 construct: expressed in transfected cells; host or cells: CHO
T1 sequence (P05106 27-788): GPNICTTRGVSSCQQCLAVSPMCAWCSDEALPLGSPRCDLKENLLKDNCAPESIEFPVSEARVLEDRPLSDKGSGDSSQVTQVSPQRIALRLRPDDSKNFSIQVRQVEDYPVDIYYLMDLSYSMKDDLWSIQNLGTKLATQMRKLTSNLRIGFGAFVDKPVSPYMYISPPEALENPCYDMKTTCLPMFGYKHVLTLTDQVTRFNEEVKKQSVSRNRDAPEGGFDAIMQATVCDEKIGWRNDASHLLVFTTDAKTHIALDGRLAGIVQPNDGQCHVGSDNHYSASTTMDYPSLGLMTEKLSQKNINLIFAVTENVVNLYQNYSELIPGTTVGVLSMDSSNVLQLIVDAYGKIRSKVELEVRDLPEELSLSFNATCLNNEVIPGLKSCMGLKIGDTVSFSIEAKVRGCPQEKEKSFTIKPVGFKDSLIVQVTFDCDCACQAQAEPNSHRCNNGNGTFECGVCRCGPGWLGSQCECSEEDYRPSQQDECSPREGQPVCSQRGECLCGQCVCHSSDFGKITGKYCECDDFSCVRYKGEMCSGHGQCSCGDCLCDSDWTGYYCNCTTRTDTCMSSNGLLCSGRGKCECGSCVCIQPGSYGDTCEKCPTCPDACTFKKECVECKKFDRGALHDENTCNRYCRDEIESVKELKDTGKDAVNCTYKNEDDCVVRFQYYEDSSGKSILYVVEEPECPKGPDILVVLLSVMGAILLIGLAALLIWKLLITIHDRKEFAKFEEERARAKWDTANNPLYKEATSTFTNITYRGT
Description: Cell adhesion assay, β3-CHO cells. The experiment is classed as cell-based. How it is done: CHO or K562 cells expressing different recombinant integrins were previously known and available (Zhang et al. 1998; Tarui et al. 2006). Labeling of proteins with FITC or […] was performed according to manufacturers' instructions. Flow cytometry was performed as described above.
Cell adhesion and soluble integrin binding assays were performed as described previously (Mori, et al., 2008). NRG1α (175-241) was immobilized to wells of 96-well microtiter plate overnight at 4° C. in 0.1 M carbonate buffer, pH 2 9.4. Remaining protein binding sites were blocked by incubating with 200 μl of 0.1% BSA in PBS for 60 min at room temperature. Wells were then incubated with soluble integrin αvβ3 in 50 μl in Hepes-Tyrode's buffer supplemented with 1 mM Mn2+ at room temperature for 60 min. After rinsing the wells with the same buffer, bound integrins were determined by horseradish peroxidase (HRP)-conjugated anti-His tag mouse IgG and substrate 3,3′,5,5′-tetramethylbenzidine of HRP.

The target of experiment [3] is T2, Recombinant human ErbB3 Fc chimera (Homo sapiens, UniProt P21860).
T2 construct: Recombinant soluble ErbB3 Fc fusion protein was coated onto well of 96-well microtiter plate; purchased R&D Systems
T2 sequence (P21860 20-643 limits assumed, change not shown): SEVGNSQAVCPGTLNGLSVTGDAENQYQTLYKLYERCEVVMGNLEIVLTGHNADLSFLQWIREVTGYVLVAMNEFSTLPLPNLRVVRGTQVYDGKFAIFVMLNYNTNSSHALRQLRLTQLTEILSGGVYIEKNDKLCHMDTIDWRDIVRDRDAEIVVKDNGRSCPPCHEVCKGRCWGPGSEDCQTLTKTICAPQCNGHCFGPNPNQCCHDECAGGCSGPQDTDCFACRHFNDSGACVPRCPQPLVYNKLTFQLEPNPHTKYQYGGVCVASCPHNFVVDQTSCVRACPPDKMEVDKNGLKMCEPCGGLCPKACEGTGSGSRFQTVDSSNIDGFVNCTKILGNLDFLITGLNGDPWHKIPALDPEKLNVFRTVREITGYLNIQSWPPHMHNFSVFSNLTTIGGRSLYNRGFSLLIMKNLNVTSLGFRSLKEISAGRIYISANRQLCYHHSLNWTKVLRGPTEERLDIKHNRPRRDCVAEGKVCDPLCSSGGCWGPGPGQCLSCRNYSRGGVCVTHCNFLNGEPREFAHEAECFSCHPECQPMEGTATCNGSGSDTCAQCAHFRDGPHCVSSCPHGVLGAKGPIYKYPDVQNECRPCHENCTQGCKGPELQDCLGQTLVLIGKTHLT
Description: Competitive binding assay on immobilized ErbB3. The note with it: biotin labeled WT 20 nM. Here is the method: FIG. 20. The 3KE mutant of NRG1α (175-241) binds to ErbB3. a). Binding of the 3KE mutant of NRG1α (175-241) to recombinant ErbB3. Recombinant soluble ErbB3 Fc fusion protein (R&D system) was coated onto wells of 96-well microtiter plate (1 μg/ml). NRG1α (175-241) WT or 3KE (175-241) mutant was added to the wells and incubated for 1 h at room temperature. GST was used as a control. After washing the wells, bound GST NRG1α (175-241) was determined by using anti-GST antibody HRP conjugate. […] Competitive binding assay. Recombinant soluble ErbB3 Fc fusion protein was coated onto well of 96-well microtiter plate (1 μg/ml). Binding of biotin labeled NRG1α (175-241) WT (20 nM) in the presence of increasing concentrations of NRG1α (175-241) WT, 3KE (175-241) or GST. After washing the wells, bound biotin labeled NRG1α (175-241) WT was determined by using streptavidin HRP conjugate.
GST-fusion WT NRG1α (175-241) was biotinylated by using EZ-Link Sulfo-NHS-LC-Biotin (Pierce) as described in the manufacturer's instructions. Briefly, GST-fusion WT NRG1α (175-241) was incubated with sulfo-NHS-LCBiotin for 1 hour on ice, and remaining free sulfo-NHS-LC-Biotin was quenched with Tris-HCl buffer pH 8.0. Recombinant human ErbB3 Fc chimera (R&D Systems) was immobilized to wells of 96-well microtiter plate at 1 μg/ml coating concentration in 0.1 M NaHCO3, pH9.4 overnight at 4° C., and the remaining protein binding sites were blocked by incubating with 0.1% BSA. Wells were then incubated with biotinylated GST fusion NRG1α (175-241) in the presence of non-labeled GST, GST-WT NRG1α (175-241) or GST-3KE (175-241) for 3 h at room temperature. Bound biotinylated GST-fusion NRG1α (175-241) WT to wells was determined with streptavidin HRP conjugate and HRP substrate at 490 nm.

Numbering of substitutions follows the chain as printed.

For the molecule “3KE (175-222): NRG1 (175-222) with Lys181/Lys185/Lys187 mutated to Glu; GTSHLVECAEEEETFCVNGGECFMVKDLSNPSRYLCKCQPGFTGARCT (SEQ ID NO:11) (integrin-binding site within human neuregulin, 3KE mutant, short version)”, in experiment [1], the “D1 cyclin levels in B16F10 cells” value was “suppressed D1 cyclin levels very rapidly” and the “ERK1/2 activation in B16F10 cells” value is “did not induce them”.

Consider “wt NRG1 (175-222): wild type human neuregulin 1 fragment, EGF-like domain, residues 175-222 of SEQ ID NO:4 (SEQ ID NO:3) (GTSHLVKCAEKEKTFCVNGGECFMVKDLSNPSRYLCKCQPGFTGARCT; integrin-binding site within human neuregulin 1 EGF-like region and portion of alpha domain, residues 175-222 of human neuregulin 1 alpha) [reference compound]”, for which the “Adhesion of β3-CHO cells to the immobilized protein” value in experiment [2] is reported as “adhered to NRG1 (175-222)”. For the same molecule, in experiment [1], the “AKT activation in B16F10 cells” value is listed as “induced” and the “ERK1/2 activation in B16F10 cells” value is on record as “induced”.

B1: WT NRG1α (175-241): wild type human neuregulin 1 fragment, residues 175-241 of SEQ ID NO:4 (SEQ ID NO:5), entire EGF-like motif and α domain (protein)
chain: GTSHLVKCAEKEKTFCVNGGECFMVKDLSNPSRYLCKCQPGFTGARCTENVPMKVQNQEKAEELYQK
modifications: integrin-binding site within human neuregulin, residues 175-241of human neuregulin 1alpha, long version
On to B1, for which, in experiment [2], the “Adhesion of β3-CHO cells to the immobilized protein” value is “adhered to NRG1α (175-241)”. Besides, the “Competition for binding of biotinylated WT NRG1α (175-241) to immobilized soluble ErbB3” value in experiment [3] was “at comparable levels”.

B2: 3KE (175-241): NRG1α (175-241) with Lys181/Lys185/Lys187 mutated to Glu, SEQ ID NO:6 (3KE, long version) (protein)
chain: B1 chain with K7E, K11E, K13E
modifications: integrin-binding site within human neuregulin, residues 175-241of human neuregulin 1alpha, long version, 3KE mutant
For B2, the “Competition for binding of biotinylated WT NRG1α (175-241) to immobilized soluble ErbB3” value in experiment [3] (listed as 3KE NRG1α (175-241)) was “at comparable levels”; in experiment [3] (listed as 3KE mutant of NRG1α (175-241)), “binds to ErbB3 at levels comparable to WT NRG1α (175-241)”.
